Experiments:
HUVEC [1] = test: Inhibition of VEGF165-induced or mini TyrRS-induced HUVEC migration; type: cell-based, human; conditions: for inhibition of HUVEC migration: as described in Example 14, inducer not stated; for inhibition of VEGF165-induced HUVEC chemotaxis / inhibition of mini TyrRS-induced HUVEC chemotaxis: 500 nM TrpRS; for inhibition of VEGF165-induced HUVEC chemotaxis: 0.5 nM VEGF165; for inhibition of mini TyrRS-induced HUVEC chemotaxis: 50 nM mini TyrRS
Method: Cell migration assays were performed using the modified Boyden chamber (6.5 mm Transwells) with polycarbonate membranes (8.0 μm pore size) (Costar Corp., Cambridge, Mass.) (Masood et al., 1999, Blood 93:1038-44). Wells were coated overnight with 25 μg/mL human fibronectin (Biosource International, Camarillo, Calif.) in PBS and then allowed to air-dry. HUVECs were suspended in Dulbecco's modified Eagle's medium (DMEM) (Gibco-BRL, Gaithersburg, Md.) containing 0.1% BSA (Sigma) and 2×10^5 cells per well were added to the upper chamber. The chemotactic stimulus (50 nM of a given TyrRS molecule or 0.5 nM of human vascular endothelial growth factor-165 (VEGF165) (Biosource International, Camarillo, Calif.)) was placed in the lower chamber, and the cells were allowed to migrate for 6 hours at 37° C. in a 6% CO2 incubator. After incubation, non-migrant cells were removed from the upper face of the Transwell membrane with a cotton swab and migrant cells, those attached to the lower face, were fixed in methanol and visualized with the HEMACOLOR® stain set (EM Diagnostic Systems, Gibbstown, N.J.). Migrating cells were counted in high-power fields (HPFs). HUVECs were suspended in media with the inhibitor for 30 minutes before placement in the chamber. Each determination shown in FIG. 16 represents the average of nine HPF measurements.
The angiostatic activity of TrpRS was next evaluated in experiments testing the ability of human full-length TrpRS and human mini TrpRS to inhibit human VEGF165-induced or human mini TyrRS-induced cell migration. Cell migration assays were performed as described in Example 11 with full-length TrpRS or mini TrpRS added to VEGF165-induced or mini TyrRS-induced HUVEC samples. HUVEC samples were treated with 0.5 nM VEGF165, 50 nM mini TyrRS, and 500 nM of a given TrpRS. Four measurements of chemotaxis were done for each protein. Each determination shown in FIG. 19 represents the average of nine HPF measurements. […] In contrast, human full-length TrpRS had no effect on VEGF165-induced or mini TyrRS-induced HUVEC chemotaxis.

chick CAM = test: Inhibition of VEGF165-induced or mini TyrRS-induced angiogenesis in chick CAM; type: in vivo; conditions: 3 μg inhibitor; for inhibition of VEGF165-induced angiogenesis in chick CAM: 25 ng VEGF165, 72 hours; for inhibition of mini TyrRS-induced angiogenesis in chick CAM: 250 ng mini TyrRS, 72 hours
Method: In vivo angiogenesis assays were conducted in chick chorioallantoic membrane (CAM) (Nicolaou et al., 1998, Bioorg. Med. Chem. 6:1185-208). Ten-day-old chick embryos were purchased from Mcintyre Poultry (Lakeside, Calif.) and were incubated at 37° C. and 70% humidity. A small hole was made with a small crafts drill (Dremel, Emerson Electric, Racine, Wis.) directly over the air sac at the end of the egg. The embryos were candled to determine a location to drill a second hole directly over embryonic blood vessels. […] A window was cut in the eggshell over the dropped CAM, exposing the CAM to direct access for experimental manipulation. Cortisone acetate-treated 5 mm filter disks were soaked with a particular protein sample (25 ng of VEGF165 or 250 ng of a given TyrRS molecule) and the filter disks added directly to the CAMs, which were relatively devoid of preexisting blood vessels. The windows were sealed with sterile tape and incubated at 37° C. At 0, 24, and 48 hours following incubation, 3 μg of […] (IP-10) (R & D Systems, Minneapolis, Minn.) was topically applied to the filter disks. After 72 hours, the CAM tissue associated with the filter disk was harvested and quantified using a stereomicroscope. Angiogenesis was assessed as the number of visible blood vessel branch points within the defined area of the filter disks. Each determination shown in FIG. 17 represents the mean from 5-8 embryos.
The angiostatic activity of human full-length TrpRS and human mini TrpRS was also analyzed in in vivo angiogenesis assays conducted in chick CAM. In vivo angiogenesis assays were performed as described in Example 12 with 3 μg of full-length TrpRS or mini TrpRS added to VEGF165-induced or mini TyrRS-induced CAM tissue.

HUVEC [2] = test: Inhibition of VEGF165-induced cell proliferation; type: cell-based, human; conditions: 2 μM TrpRS, 2 nM VEGF165, 72 hours
Method: The angiostatic activity of TrpRS was first evaluated in experiments testing the ability of human full-length TrpRS and human mini TrpRS to inhibit human VEGF165-induced cell proliferation. Tissue culture-treated 96-well plates (Corning Costar Corp., Cambridge, Mass.) were coated with 0.1% gelatin (Sigma) overnight. Cells were then seeded in the gelatinized plates at a density of 5×10^3 cells per well in DMEM medium (Gibco-BRL) containing heat-inactivated fetal bovine serum (FBS) (10%, Sigma) and penicillin/streptomycin (100 units/mL-100 μg/mL, Sigma). The following day, the cells were treated with 2 μM of a given TrpRS in the presence of 2 nM VEGF165. After 72 hours of incubation, assays were performed by using the […] 96® aqueous one-solution cell proliferation assay kit (Promega, Madison, Wis.). Results of the inhibition assay are shown in FIG. 18 as the percentage of net proliferation of VEGF165. Each determination shown represents the mean of five experiments.

Molecule	inhibition of HUVEC migration (HUVEC [1])	inhibition of VEGF165-induced angiogenesis in chick CAM (chick CAM)	inhibition of mini TyrRS-induced angiogenesis in chick CAM (chick CAM)	inhibition of VEGF165-induced cell proliferation (HUVEC [2])	inhibition of VEGF165-induced HUVEC chemotaxis (HUVEC [1])	inhibition of mini TyrRS-induced HUVEC chemotaxis (HUVEC [1])
inactive TrpRS: minor PMN elastase fragment of TrpRS, amino-terminal residue at position 94 of full-length TrpRS (protein, His6 tag; Human inactive TrpRS in pET20B, minor PMN elastase fragment of TrpRS, amino-terminal residue at position 94 of full-length TrpRS) MSAKGIDYDKLIVRFGSSKIDKELINRIERATGQRPHHFLRRGIFFSHRDMNQVLDAYENKKPFYLYTGRGPSSEAMHVGHLIPFIFTKWLQDVFNVPLVIQMTDDEKYLWKDLTLDQAYGDAVENAKDIIACGFDINKTFIFSDLDYMGMSSGFYKNVVKIQKHVTFNQVKGIFGFTDSDCIGKISFPAIQAAPSFSNSFPQIFRDRTDIQCLIPCAIDQDPYFRMTRDVAPRIGYPKPALLHSTFFPALQGAQTKMSASDPNSSIFLTDTAKQIKTKVNKHAFSGGRDTIEEHRQFGGNCDVDVSFMYLTFFLEDDDKLEQIRKDYTSGAMLTGELKKALIEVLQPLIAEHQARRKEVTDEIVKEFMTPRKLSFDFQKLAAALEHHHHHH	did not exhibit angiostatic activity	did not exhibit angiostatic activity	did not exhibit angiostatic activity	did not exhibit angiostatic activity		
mini TrpRS: truncated TrpRS, residues 48-471 of full-length TrpRS (protein, His6 tag; Human mini TrpRS in pET20B, truncated TrpRS, residues 48-471 of full-length TrpRS) MSYKAAAGEDYKADCPPGNPAPTSNHGPDATEAEEDFVDPWTVQTSSAKGIDYDKLIVRFGSSKIDKELINRIERATGQRPHHFLRRGIFFSHRDMNQVLDAYENKKPFYLYTGRGPSSEAMHVGHLIPFIFTKWLQDVFNVPLVIQMTDDEKYLWKDLTLDQAYGDAVENAKDIIACGFDINKTFIFSDLDYMGMSSGFYKNVVKIQKHVTFNQVKGIFGFTDSDCIGKISFPAIQAAPSFSNSFPQIFRDRTDIQCLIPCAIDQDPYFRMTRDVAPRIGYPKPALLHSTFFPALQGAQTKMSASDPNSSIFLTDTAKQIKTKVNKHAFSGGRDTIEEHRQFGGNCDVDVSFMYLTFFLEDDDKLEQIRKDYTSGAMLTGELKKALIEVLQPLIAEHQARRKEVTDEIVKEFMTPRKLSFDFQKLAAALEHHHHHH		inhibited	inhibited	able to inhibit human VEGF165-induced cell proliferation	inhibited	inhibited
supermini TrpRS: residues 71-471 of full-length TrpRS, major PMN elastase fragment (protein, His6 tag; Human supermini TrpRS in pET20B, residues 71-471 of full-length TrpRS, major PMN elastase fragment) MSNHGPDATEAEEDFVDPWTVQTSSAKGIDYDKLIVRFGSSKIDKELINRIERATGQRPHHFLRRGIFFSHRDMNQVLDAYENKKPFYLYTGRGPSSEAMHVGHLIPFIFTKWLQDVFNVPLVIQMTDDEKYLWKDLTLDQAYGDAVENAKDIIACGFDINKTFIFSDLDYMGMSSGFYKNVVKIQKHVTFNQVKGIFGFTDSDCIGKISFPAIQAAPSFSNSFPQIFRDRTDIQCLIPCAIDQDPYFRMTRDVAPRIGYPKPALLHSTFFPALQGAQTKMSASDPNSSIFLTDTAKQIKTKVNKHAFSGGRDTIEEHRQFGGNCDVDVSFMYLTFFLEDDDKLEQIRKDYTSGAMLTGELKKALIEVLQPLIAEHQARRKEVTDEIVKEFMTPRKLSFDFQKLAAALEHHHHHH	capable of inhibiting HUVEC proliferation and migration	capable of inhibiting	capable of inhibiting	capable of inhibiting HUVEC proliferation and migration		
full-length TrpRS: recombinant human tryptophanyl-tRNA synthetase, 471 amino acid residues (protein, His6 tag; Human full-length TrpRS in pET20B, recombinant human tryptophanyl-tRNA synthetase, 471 amino acid residues) MPNSEPASLLELFNSIATQGELVRSLKAGNASKDEIDSAVKMLVSLKMSYKAAAGEDYKADCPPGNPAPTSNHGPDATEAEEDFVDPWTVQTSSAKGIDYDKLIVRFGSSKIDKELINRIERATGQRPHHFLRRGIFFSHRDMNQVLDAYENKKPFYLYTGRGPSSEAMHVGHLIPFIFTKWLQDVFNVPLVIQMTDDEKYLWKDLTLDQAYGDAVENAKDIIACGFDINKTFIFSDLDYMGMSSGFYKNVVKIQKHVTFNQVKGIFGFTDSDCIGKISFPAIQAAPSFSNSFPQIFRDRTDIQCLIPCAIDQDPYFRMTRDVAPRIGYPKPALLHSTFFPALQGAQTKMSASDPNSSIFLTDTAKQIKTKVNKHAFSGGRDTIEEHRQFGGNCDVDVSFMYLTFFLEDDDKLEQIRKDYTSGAMLTGELKKALIEVLQPLIAEHQARRKEVTDEIVKEFMTPRKLSFDFQKLAAALEHHHHHH		no observable angiostatic activity	no observable angiostatic activity	exhibited no angiostatic activity	had no effect	had no effect

From patent US9205136B2, “Human aminoacyl-tRNA synthetase polypeptides useful for the regulation of angiogenesis” (THE SCRIPPS RESEARCH INSTITUTE, priority 2000, dated 2015)
